Patent publication CN117990904A

Target: A型FMDV毒株
Assay: cell-based or functional assay

B1: A型口蹄疫病毒中和抗体Ab1 (VHH)
VHH: QVQLQESGGGLVQAGGSLRLSCVYSGFTFGHYSMGWYRQAPGKEREFVAAIRRSDGSTDYADSTVKGRFTISRDNAKKTVYLQMNSLKPEDTAVYYCATVRRVATLSGSSSWGQGTQVTVSS
With B1 the Neu 50 (病毒中和试验) was 1.2 µmol/L.
